The results in this text go back to doi:10.1101/2021.10.29.466484, “Clamping of DNA shuts the condensin neck gate” (bioRxiv, 2021).

One assay addresses T1, Ycg1 (S. cerevisiae, UniProt Q06680 1-1035).
T1 construct: Ycg1, HAWK subunit of budding yeast (S. cerevisiae) condensin, wild type
T1 sequence: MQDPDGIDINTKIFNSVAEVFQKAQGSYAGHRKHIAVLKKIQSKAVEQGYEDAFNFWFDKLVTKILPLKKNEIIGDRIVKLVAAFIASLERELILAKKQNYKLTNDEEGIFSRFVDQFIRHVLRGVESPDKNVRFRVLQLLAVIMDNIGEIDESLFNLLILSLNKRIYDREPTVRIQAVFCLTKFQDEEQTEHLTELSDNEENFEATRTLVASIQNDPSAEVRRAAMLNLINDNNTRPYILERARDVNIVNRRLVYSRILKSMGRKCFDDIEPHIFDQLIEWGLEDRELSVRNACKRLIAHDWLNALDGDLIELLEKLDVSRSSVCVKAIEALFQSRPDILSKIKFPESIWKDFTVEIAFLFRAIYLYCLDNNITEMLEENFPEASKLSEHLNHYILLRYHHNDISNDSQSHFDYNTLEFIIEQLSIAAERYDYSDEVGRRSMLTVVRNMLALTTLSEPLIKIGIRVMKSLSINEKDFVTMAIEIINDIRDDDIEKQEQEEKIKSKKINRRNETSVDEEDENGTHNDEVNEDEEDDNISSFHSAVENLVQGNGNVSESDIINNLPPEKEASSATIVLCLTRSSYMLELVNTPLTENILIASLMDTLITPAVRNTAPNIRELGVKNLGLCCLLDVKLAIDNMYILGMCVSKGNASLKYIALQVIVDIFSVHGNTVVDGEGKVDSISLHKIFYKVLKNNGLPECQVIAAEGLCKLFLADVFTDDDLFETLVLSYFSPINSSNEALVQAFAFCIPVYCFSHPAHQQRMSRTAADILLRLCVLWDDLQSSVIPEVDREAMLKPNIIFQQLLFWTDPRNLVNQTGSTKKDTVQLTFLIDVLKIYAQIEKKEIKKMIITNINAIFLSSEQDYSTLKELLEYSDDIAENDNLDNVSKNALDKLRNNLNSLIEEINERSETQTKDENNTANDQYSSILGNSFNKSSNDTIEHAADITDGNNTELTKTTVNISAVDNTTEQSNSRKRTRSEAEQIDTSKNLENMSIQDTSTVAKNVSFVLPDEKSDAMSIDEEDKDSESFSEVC
Kind of assay: cryo-EM structure; condensin pentamer (Smc2, Smc4, Brn1, Ycs4, Ycg1) with 80 bp dsDNA, ADP and BeF3; separate maps of the head module and of Ycg1-DNA from one dataset. As to conditions: both partners purified.

For another assay, the target named is T2, Smc4 (S. cerevisiae, UniProt Q12267 1-1418).
T2 construct: Smc4, SMC subunit of budding yeast (S. cerevisiae) condensin, wild type; Only the head domain and proximal coiled coil are resolved in the maps; also called SMC4-3xStrepII
T2 sequence: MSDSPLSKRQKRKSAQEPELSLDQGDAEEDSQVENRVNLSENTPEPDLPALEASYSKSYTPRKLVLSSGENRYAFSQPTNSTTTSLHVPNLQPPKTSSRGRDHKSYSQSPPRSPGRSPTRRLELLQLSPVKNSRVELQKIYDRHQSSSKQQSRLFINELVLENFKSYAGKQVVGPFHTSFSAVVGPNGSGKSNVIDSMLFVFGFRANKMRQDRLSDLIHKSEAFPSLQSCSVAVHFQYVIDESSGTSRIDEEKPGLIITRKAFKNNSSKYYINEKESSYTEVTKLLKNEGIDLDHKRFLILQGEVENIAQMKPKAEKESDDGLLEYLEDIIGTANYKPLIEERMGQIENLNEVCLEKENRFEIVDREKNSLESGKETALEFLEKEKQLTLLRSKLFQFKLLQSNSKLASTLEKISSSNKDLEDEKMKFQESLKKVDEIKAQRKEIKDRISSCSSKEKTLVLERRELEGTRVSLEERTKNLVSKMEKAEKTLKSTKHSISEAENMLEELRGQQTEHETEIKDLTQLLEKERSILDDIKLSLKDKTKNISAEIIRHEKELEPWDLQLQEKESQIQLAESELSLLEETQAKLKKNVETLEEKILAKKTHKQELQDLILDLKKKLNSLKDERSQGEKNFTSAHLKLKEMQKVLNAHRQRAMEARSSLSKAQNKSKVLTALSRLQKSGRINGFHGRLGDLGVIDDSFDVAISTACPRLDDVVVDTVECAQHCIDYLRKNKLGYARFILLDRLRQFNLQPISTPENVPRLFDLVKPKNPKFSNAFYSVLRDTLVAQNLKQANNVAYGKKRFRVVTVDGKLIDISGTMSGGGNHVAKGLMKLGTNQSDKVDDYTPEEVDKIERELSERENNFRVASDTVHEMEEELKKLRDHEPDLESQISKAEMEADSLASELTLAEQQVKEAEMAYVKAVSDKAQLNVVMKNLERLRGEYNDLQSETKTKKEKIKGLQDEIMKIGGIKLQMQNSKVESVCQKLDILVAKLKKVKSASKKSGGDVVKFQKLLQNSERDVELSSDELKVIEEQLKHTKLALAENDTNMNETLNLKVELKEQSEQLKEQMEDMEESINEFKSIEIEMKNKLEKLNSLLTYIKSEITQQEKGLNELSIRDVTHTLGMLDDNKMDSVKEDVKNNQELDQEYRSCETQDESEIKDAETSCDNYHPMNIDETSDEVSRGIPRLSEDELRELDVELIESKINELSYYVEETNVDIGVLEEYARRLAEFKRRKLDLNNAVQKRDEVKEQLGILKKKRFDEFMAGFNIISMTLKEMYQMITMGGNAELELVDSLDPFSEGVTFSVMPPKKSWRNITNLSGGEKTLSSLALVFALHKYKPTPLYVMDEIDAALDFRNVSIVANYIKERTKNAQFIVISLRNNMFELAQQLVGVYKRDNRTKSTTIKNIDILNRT
The description is as above. As to conditions: both partners purified.

B1: Brn1 (natural protein, S. cerevisiae)
chain: MTTQLRYENNDDDERVEYNLFTNRSTMMANFEEWIKMATDNKINSRNSWNFALIDYFYDLDVLKDGENNINFQKASATLDGCIKIYSSRVDSVTTETGKLLSGLAQRKTNGASNGDDSNGGNGEGLGGDSDEANIEIDPLTGMPISNDPDVNNTRRRVYNRVLETTLVEFETIKMKELDQELIIDPLFKKALVDFDEGGAKSLLLNTLNIDNTARVIFDASIKDTQNVGQGKLQRKEEELIERDSLVDDENEPSQSLISTRNDSTVNDSVISAPSMEDEILSLGMDFIKFDQIAVCEISGSIEQLRNVVEDINQAKDFIENVNNRFDNFLTEEELQAAVPDNAEDDSDGFDMGMQQELCYPDENHDNTSHDEQDDDNVNSTTGSIFEKDLMAYFDENLNRNWRGREHWKVRNFKKANLVNKESDLLEETRTTIGDTTDKNTTDDKSMDTKKKHKQKKVLEIDFFKTDDSFEDKVFASKGRTKIDMPIKNRKNDTHYLLPDDFHFSTDRITRLFIKPGQKMSLFSHRKHTRGDVSSGLFEKSTVSANHSNNDIPTIADEHFWADNYERKEQEEKEKEQSKEVGDVVGGALDNPFEDDMDGVDFNQAFEGTDDNEEASVKLDLQDDEDHKFPIRENKVTYSRVSKKVDVRRLKKNVWRSINNLIQEHDSRKNREQSSNDSETHTEDESTKELKFSDIIQGISKMYSDDTLKDISTSFCFICLLHLANEHGLQITHTENYNDLIVNYEDLATTQAAS
notes: Brn1, kleisin subunit of budding yeast (S. cerevisiae) condensin, wild type; also called kleisin Brn1; BRN1-HA3-His12
For the molecule B1, the binding result in the assay with Ycg1 and with Smc4 was “binds” in each case.
